Results from patent publication US20110263454A1, “Methods of Identifying Functional Characteristics of Promoters, Transcription Modifying Proteins and Transcription Modulating Agents” (Salk Institute for Biological Studies, priority 2008, published 2011).

B1: LXRb: Liver X Receptor β (NR1H2), cDNA driver (protein, UniProt P55055 1-460, looked up)
Oxysterols receptor LXR-beta: MSSPTTSSLDTPLPGNGPPQPGAPSSSPTVKEEGPEPWPGGPDPDVPGTDEASSACSTDWVIPDPEEEPERKRKKGPAPKMLGHELCRVCGDKASGFHYNVLSCEGCKGFFRRSVVRGGARRYACRGGGTCQMDAFMRRKCQQCRLRKCKEAGMREQCVLSEEQIRKKKIRKQQQESQSQSQSPVGPQGSSSSASGPGASPGGSEAGSQGSGEGEGVQLTAAQELMIQQLVAAQLQCNKRSFSDQPKVTPWPLGADPQSRDARQQRFAHFTELAIISVQEIVDFAKQVPGFLQLGREDQIALLKASTIEIMLLETARRYNHETECITFLKDFTYSKDDFHRAGLQVEFINPIFEFSRAMRRLGLDDAEYALLIAINIFSADRPNVQEPGRVEALQQPYVEALLSYTRIKRPQDQLRFPRMLMKLVSLRTLSSVHSEQVFALRLQDKKLPPLLSEIWDVHE
B2: HNF4a: Hepatocyte Nuclear Factor α (NR2A1), cDNA driver (protein, UniProt P41235 1-474, looked up)
Hepatocyte nuclear factor …: MRLSKTLVDMDMADYSAALDPAYTTLEFENVQVLTMGNDTSPSEGTNLNAPNSLGVSALCAICGDRATGKHYGASSCDGCKGFFRRSVRKNHMYSCRFSRQCVVDKDKRNQCRYCRLKKCFRAGMKKEAVQNERDRISTRRSSYEDSSLPSINALLQAEVLSRQITSPVSGINGDIRAKKIASIADVCESMKEQLLVLVEWAKYIPAFCELPLDDQVALLRAHAGEHLLLGATKRSMVFKDVLLLGNDYIVPRHCPELAEMSRVSIRILDELVLPFQELQIDDNEYAYLKAIIFFDPDAKGLSDPGKIKRLRSQVQVSLEDYINDRQYDSRGRFGELLLLLPTLQSITWQMIEQIQFIKLFGMAKIDNLLQEMLLGGSPSDAPHAHHPLHPHLMQEHMGTNVIVANTMPTHLSNGQMCEWPRPRGQAATPETPQPSPPGGSGSEPYKLLPGAVATIVKPLSAIPQPTITKQEVI

What was measured:
mLeptin promoter = assay: NHR-promoter luciferase screen, mLeptin promoter; type: cell-based, mouse; conditions: for Luc. act., normalized to lacZ / Normalized Luc. act., normalized to control: Table 7, mLeptin; for Results of assays of transcription factor (+/- ligand) with mLeptin: Table 6d, luciferase activity relative to control (control = 1.00)
Method: (§1) The use, feasibility, and reproducibility of the functional NHR-promoter screen in a 48-well format have been tested validated. Briefly, there were co-expressed 50 ng of each NHR/NHR homodimer or NHR/RXR heterodimer with 100 ng promoter/luciferase construct and 50 ng of LacZ (as a control for transfection efficiency) in CV-1 cells using Fugene HD (Roche) as a transfection reagent (alternatively or additionally, a CMV-YFP construct can be used as a transfection control). Each of the nuclear hormone receptors that were used in these experiments was cloned into a pcDNA3.1 vector and comprised a C-terminally linked V5H6 tag. Twenty-four hours after transfection, appropriate ligands were added, where applicable, (see Table 5 for various ligands and concentrations and after 48 hrs, samples were assayed for luciferase and LacZ activity. To measure for luciferase activity 15 ul of sample was added to 30 ul of luciferase buffer (20 mM tricine, 1.07 mM MgCarbonate, 2.67 mM MgSulfate, 0.1 mM Naz-EDTA, 5 mM DTT, 5 mM ATP, 0.15 mg/ml CoA, 0.5 mM Luciferin), mixed briefly, and run in a Perkin Elmer Victor 5 luminometer. Thus, the functional NHR-promoter screen was used to observe the transcriptional activity of 29 promoters from various physiological pathways including inflammation, lipid and sugar metabolism, cholesterol transport, xenobiotic metabolism, and circadian rhythm.
(§2) The promoters that facilitate transcription of the indicated gene products that were tested using the protocols described herein are listed in the first row of the table. The nuclear hormone receptors and, where applicable, ligands that were assayed for their transcriptional effects on the promoters are listed in the first column of the table. The data represent the luciferase activity of each sample normalized to both the lacZ activity of that sample and to a control, e.g., no NHR or ligand, as customary in the art. As described previously, these normalizations allow the transcriptional activity of each reporter cell to be compared to other samples.
(§3) Tables 7-40 show the transcriptional effects of the hormone receptors, and, where applicable, ligands (orphan receptors are screened without ligand), on each individual promoter. […] The control data of each table are shown in their last rows.

mUCP3 promoter = assay: NHR-promoter luciferase screen, mUCP3 promoter; type: cell-based, mouse; conditions: for Normalized Luc. act., normalized to control / Luc. act., normalized to lacZ: mUCP3 promoter reporter; for Normalized Luc. act., normalized to control: HR without or with its ligand, relative to control; for Luc. act., normalized to lacZ: hormone receptor (HR) without or with its ligand; for mUCP3 promoter reporter activity: transcription factor +/- ligand, control = 1.00
Method: as §1, §2, §3

mGhrelin promoter = assay: NHR-promoter luciferase screen, mGhrelin promoter; type: cell-based, mouse; conditions: for Luc. act., normalized to lacZ / Normalized Luc. act., normalized to control: Table 8, mGhrelin; for Results of assays of transcription factor (+/- ligand) with mGhrelin: Table 6d, luciferase activity relative to control (control = 1.00)
Method: as §1, §2, §3

hPOMC promoter = assay: NHR-promoter luciferase screen, hPOMC promoter; type: cell-based, human; conditions: for Luc. act., normalized to lacZ / Normalized Luc. act., normalized to control: hPOMC promoter, HR/ligand component; for hPOMC promoter reporter activity: transcription factor +/- ligand, control = 1.00
Method: as §1, §2, §3

hMDR1 promoter = assay: NHR-promoter luciferase screen, hMDR1 promoter; type: cell-based, human; conditions: for Luc. act., normalized to lacZ / Normalized Luc. act., normalized to control: MDR1 promoter, HR/ligand component; for hMDR1 promoter reporter activity: transcription factor +/- ligand, control = 1.00
Method: as §1, §2, §3

Molecule	Luc. act., normalized to lacZ (mLeptin promoter)	Normalized Luc. act., normalized to control (mLeptin promoter)	Results of assays of transcription factor (+/- ligand) with mLeptin (mLeptin promoter)	Normalized Luc. act., normalized to control (mUCP3 promoter)	Luc. act., normalized to lacZ (mUCP3 promoter)	mUCP3 promoter reporter activity (mUCP3 promoter)	Luc. act., normalized to lacZ (mGhrelin promoter)	Normalized Luc. act., normalized to control (mGhrelin promoter)	Results of assays of transcription factor (+/- ligand) with mGhrelin (mGhrelin promoter)	Luc. act., normalized to lacZ (hPOMC promoter)	Normalized Luc. act., normalized to control (hPOMC promoter)	hPOMC promoter reporter activity (hPOMC promoter)	Luc. act., normalized to lacZ (hMDR1 promoter)	Normalized Luc. act., normalized to control (hMDR1 promoter)	hMDR1 promoter reporter activity (hMDR1 promoter)
B1	2.4	0.8	0.81	1.7	1.2	1.73	46.7	0.9	0.89	6.3	1.5	1.46	0.2	0.8	0.78
B2	2.5	0.8	0.84	1.1	0.7	1.06	42.6	0.8	0.82	3.5	0.8	0.81	0.2	0.8	0.77
